Test results reported in article PMC4166353.

Experiments:
[1] = target: Fluorescence quenched C4 P4-P4' substrate, 2-aminobenzoate-GLQRALEI-Lys(Dinitrophenol)-NH2

In the case of “Recombinant human C1s K628A mutant, activated (from UniProt P09871 16-688) (enzyme)”, the EC50 for cleavage of the C4 alpha chain (C4 1 uM, enzyme 0-5 nM, 1 h, 37 C, SDS-PAGE densitometry) (Complement component C4) is reported as 0.77 nM and the kcat/K0.5 for cleavage of the fluorescence quenched C4 P4-P4' peptide (400 nM enzyme, 0.5-500 uM substrate, 37 C) [1] is reported as 110000 M⁻¹ s⁻¹.
In the case of “Recombinant human C1s K628Q mutant, activated (from UniProt P09871 16-688) (enzyme)”, the EC50 for cleavage of the C4 alpha chain (C4 1 uM, enzyme 0-5 nM, 1 h, 37 C, SDS-PAGE densitometry) (Complement component C4) is reported as 0.76 nM and the kcat/K0.5 for cleavage of the fluorescence quenched C4 P4-P4' peptide (400 nM enzyme, 0.5-500 uM substrate, 37 C) [1] is reported as 95000 M⁻¹ s⁻¹.
“Recombinant human C1s, wild type, activated (from UniProt P09871 16-688) (enzyme)” gave an EC50 for cleavage of the C4 alpha chain (C4 1 uM, enzyme 0-5 nM, 1 h, 37 C, SDS-PAGE densitometry) (Complement component C4) of 0.16 nM and a kcat/K0.5 for cleavage of the fluorescence quenched C4 P4-P4' peptide (400 nM enzyme, 0.5-500 uM substrate, 37 C) [1] of 82000 M⁻¹ s⁻¹.
